Experimental data: PMC7490560 (2020)

Tests used:
ELF3 [1] = target: T1, ELF3 (Homo sapiens, UniProt P78545); assay: DULIP (scaled)
T1 chain: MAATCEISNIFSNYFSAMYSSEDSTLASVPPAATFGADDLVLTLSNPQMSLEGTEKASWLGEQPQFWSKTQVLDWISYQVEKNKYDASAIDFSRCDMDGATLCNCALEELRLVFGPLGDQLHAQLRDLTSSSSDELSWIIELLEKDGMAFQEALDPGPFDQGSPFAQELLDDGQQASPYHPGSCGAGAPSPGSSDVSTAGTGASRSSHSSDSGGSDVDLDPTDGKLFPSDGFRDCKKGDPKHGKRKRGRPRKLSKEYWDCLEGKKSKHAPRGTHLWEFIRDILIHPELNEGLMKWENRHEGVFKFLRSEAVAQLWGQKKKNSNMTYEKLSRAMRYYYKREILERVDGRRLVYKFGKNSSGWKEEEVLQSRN

DDIT3 = target: T2, DDIT3 (Homo sapiens, UniProt P35638); assay: DULIP (scaled)
T2 chain: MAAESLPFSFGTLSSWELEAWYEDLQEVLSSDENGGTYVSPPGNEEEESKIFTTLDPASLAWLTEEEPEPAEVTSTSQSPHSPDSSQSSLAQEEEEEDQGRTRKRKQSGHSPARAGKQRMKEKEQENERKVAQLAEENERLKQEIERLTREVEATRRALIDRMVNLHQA

CEBPG [2] = target: T3, CEBPG (Homo sapiens, UniProt P53567); assay: DULIP (scaled)
T3 chain: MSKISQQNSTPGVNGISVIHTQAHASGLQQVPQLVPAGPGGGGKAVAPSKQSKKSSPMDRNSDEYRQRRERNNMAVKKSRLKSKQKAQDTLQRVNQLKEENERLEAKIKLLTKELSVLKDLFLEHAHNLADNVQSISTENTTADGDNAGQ

FOSL2 [3] = target: T4, FOSL2 (Homo sapiens, UniProt P15408); assay: DULIP (scaled)
T4 chain: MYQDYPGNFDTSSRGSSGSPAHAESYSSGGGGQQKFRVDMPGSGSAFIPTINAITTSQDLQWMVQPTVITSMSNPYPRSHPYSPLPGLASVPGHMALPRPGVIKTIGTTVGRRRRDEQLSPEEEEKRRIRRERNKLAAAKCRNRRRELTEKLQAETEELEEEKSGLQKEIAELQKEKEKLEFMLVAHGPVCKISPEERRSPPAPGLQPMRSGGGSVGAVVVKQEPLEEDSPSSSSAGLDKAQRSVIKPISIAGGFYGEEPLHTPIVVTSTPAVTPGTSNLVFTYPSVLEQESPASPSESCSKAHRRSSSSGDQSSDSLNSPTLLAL

MAP2K6 = target: T5, MAP2K6 (Homo sapiens, UniProt P52564); assay: DULIP (scaled)
T5 chain: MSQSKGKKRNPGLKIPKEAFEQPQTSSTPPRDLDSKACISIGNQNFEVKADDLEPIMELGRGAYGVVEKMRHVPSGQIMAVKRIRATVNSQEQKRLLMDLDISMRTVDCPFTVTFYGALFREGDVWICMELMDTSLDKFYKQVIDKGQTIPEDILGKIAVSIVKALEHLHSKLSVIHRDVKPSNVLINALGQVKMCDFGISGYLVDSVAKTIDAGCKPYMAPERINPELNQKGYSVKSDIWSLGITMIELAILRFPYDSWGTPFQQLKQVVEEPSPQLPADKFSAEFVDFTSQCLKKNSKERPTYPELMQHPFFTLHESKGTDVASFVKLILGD

FOSB = target: T6, FOSB (Homo sapiens, UniProt P53539); assay: DULIP (scaled)
T6 chain: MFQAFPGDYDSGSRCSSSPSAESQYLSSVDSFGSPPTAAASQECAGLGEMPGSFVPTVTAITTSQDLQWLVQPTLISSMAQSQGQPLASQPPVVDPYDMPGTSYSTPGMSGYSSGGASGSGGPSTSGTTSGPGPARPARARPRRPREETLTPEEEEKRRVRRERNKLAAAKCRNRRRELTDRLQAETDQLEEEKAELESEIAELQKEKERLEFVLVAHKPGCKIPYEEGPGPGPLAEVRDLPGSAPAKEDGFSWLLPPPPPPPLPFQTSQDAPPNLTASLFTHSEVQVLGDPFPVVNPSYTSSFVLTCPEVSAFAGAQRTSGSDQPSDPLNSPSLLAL

ELF3 [4] = target: T1, ELF3; assay: FCCS (live HEK293T cells)
CEBPG [5] = target: T3, CEBPG; assay: FCCS (live HEK293T cells)
CREBL2 = target: T7, CREBL2 (Homo sapiens, UniProt O60519); assay: FCCS (live HEK293T cells)
T7 chain: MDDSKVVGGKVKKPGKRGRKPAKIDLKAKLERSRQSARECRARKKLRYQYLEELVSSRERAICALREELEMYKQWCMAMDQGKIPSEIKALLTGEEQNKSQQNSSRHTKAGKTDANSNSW

FOSL2 [6] = target: T4, FOSL2; assay: FCCS (live HEK293T cells)
EIF3J = EIF3J (Homo sapiens, UniProt O75822); assay: FCCS (live HEK293T cells)
Sequence of EIF3J (O75822 2-258): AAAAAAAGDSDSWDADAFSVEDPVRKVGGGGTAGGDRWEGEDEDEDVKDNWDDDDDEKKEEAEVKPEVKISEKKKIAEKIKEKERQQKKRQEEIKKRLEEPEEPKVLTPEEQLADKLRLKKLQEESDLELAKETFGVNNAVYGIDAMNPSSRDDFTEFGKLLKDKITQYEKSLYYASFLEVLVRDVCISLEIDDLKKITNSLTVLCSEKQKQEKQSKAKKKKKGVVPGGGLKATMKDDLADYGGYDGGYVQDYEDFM

B1: NRF2 (protein)
chain: MMDLELPPPGLPSQQDMDLIDILWRQDIDLGVSREVFDFSQRRKEYELEKQKKLEKERQEQLQKEQEKAFFAQLQLDEETGEFLPIQPAQHIQSETSGSANYSQVAHIPKSDALYFDDCMQLLAQTFPFVDDNEVSSATFQSLVPDIPGHIESPVFIATNQAQSPETSVAQVAPVDLDGMQQDIEQVWEELLSIPELQCLNIENDKLVETTMVPSPEAKLTEVDNYHFYSSIPSMEKEVGNCSPHFLNAFEDSFSSILSTEDPNQLTVNSLNSDATVNTDFGDEFYSAFIAEPSISNSMPSPATLSHSLSELLNGPIDVSDLSLCKAFNQNHPESTAEFNDSDSGISLNTSPSVASPEHSVESSSYGDTLLGLSDSEVEELDSAPGSVKQNGPKTPVHSSGDMVQPLSPSQGQSTHVHDAQCENTPEKELPVSPGHRKTPFTKDKHSSRLEAHLTRDELRAKALHIPFPVEKIINLPVVDFNEMMSKEQFNEAQLALIRDIRRRGKNKVAAQNCRKRKLENIVELEQDLDHLKDEKEKLLKEKGENDKSLHLLKKQLSTLYLEVFSMLRDEDGKPYSPSEYSLQQTRDGNVFLVPKSKKPDVKKN
Kd (ELF3 [1]): > 9 µM | Kd (DDIT3): > 9 µM | Kd (CEBPG [2]): > 9 µM | Kd (FOSL2 [3]): > 9 µM | Kd (MAP2K6): > 9 µM | Kd (FOSB): > 9 µM | Kd (ELF3 [4]): > 10 µM | Kd (CEBPG [5]): > 10 µM | Kd (CREBL2): > 10 µM | Kd (FOSL2 [6]): > 10 µM | Kd (EIF3J): > 10 µM
